Reference: PMC9719943, “Expression and structural analysis of human neuroligin 2 and neuroligin 3 implicated in autism spectrum disorders” (Frontiers in Endocrinology, 2022)

Biological target: the molecule itself
Test: cryo-EM structure; purified NLGNs at 0.25 mg/ml on holey carbon grids; protein in 25 mM HEPES pH 7.5, 150 mM NaCl; homodimer, C2 symmetry

Row | Protein | stoichiometry N
1 | extracellular domain of human NLGN2 (domain or fragment, UniProt Q8NFZ4 15-677, looked up, neuroligin 2 (NLGN2), human, extracellular domain; Subcloned into the secretory vector pSecTAG2B; also called neuroligin 2; NLGN2 ectodomain; source: Expi293F (HEK293F) cells, transiently transfected, purified (nickel resin, Superose 6 SEC)) QRGGGGPGGGAPGGPGLGLGSLGEERFPVVNTAYGRVRGVRRELNNEILGPVVQFLGVPYATPPLGARRFQPPEAPASWPGVRNATTLPPACPQNLHGALPAIMLPVWFTDNLEAAATYVQNQSEDCLYLNLYVPTEDGPLTKKRDEATLNPPDTDIRDPGKKPVMLFLHGGSYMEGTGNMFDGSVLAAYGNVIVATLNYRLGVLGFLSTGDQAAKGNYGLLDQIQALRWLSENIAHFGGDPERITIFGSGAGASCVNLLILSHHSEGLFQKAIAQSGTAISSWSVNYQPLKYTRLLAAKVGCDREDSAEAVECLRRKPSRELVDQDVQPARYHIAFGPVVDGDVVPDDPEILMQQGEFLNYDMLIGVNQGEGLKFVEDSAESEDGVSASAFDFTVSNFVDNLYGYPEGKDVLRETIKFMYTDWADRDNGEMRRKTLLALFTDHQWVAPAVATAKLHADYQSPVYFYTFYHHCQAEGRPEWADAAHGDELPYVFGVPMVGATDLFPCNFSKNDVMLSAVVMTYWTNFAKTGDPNQPVPQDTKFIHTKPNRFEEVVWSKFNSKEKQYLHIGLKPRVRDNYRANKVAFWLELVPHLHNLHTELFTTTTRLPPYATRWPPRPPAGAPGTRRPPPPATLPPEPEPEPGPRAYDRFPGDSRDYSTELS | 2
2 | full-length human NLGN3 (natural protein, UniProt Q9NZ94 38-848, looked up, neuroligin 3 (NLGN3), human, full-length gene in pCDNA3.1; UniProt ID Q9NZ94 printed for NLGN3; also called neuroligin 3) QAPAPTVNTHFGKLRGARVPLPSEILGPVDQYLGVPYAAPPIGEKRFLPPEPPPSWSGIRNATHFPPVCPQNIHTAVPEVMLPVWFTANLDIVATYIQEPNEDCLYLNVYVPTEDVKRISKECARKPNKKICRKGGSGAKKQGEDLADNDGDEDEDIRDSGAKPVMVYIHGGSYMEGTGNMIDGSILASYGNVIVITLNYRVGVLGFLSTGDQAAKGNYGLLDQIQALRWVSENIAFFGGDPRRITVFGSGIGASCVSLLTLSHHSEGLFQRAIIQSGSALSSWAVNYQPVKYTSLLADKVGCNVLDTVDMVDCLRQKSAKELVEQDIQPARYHVAFGPVIDGDVIPDDPEILMEQGEFLNYDIMLGVNQGEGLKFVEGVVDPEDGVSGTDFDYSVSNFVDNLYGYPEGKDTLRETIKFMYTDWADRDNPETRRKTLVALFTDHQWVEPSVVTADLHARYGSPTYFYAFYHHCQSLMKPAWSDAAHGDEVPYVFGVPMVGPTDLFPCNFSKNDVMLSAVVMTYWTNFAKTGDPNKPVPQDTKFIHTKANRFEEVAWSKYNPRDQLYLHIGLKPRVRDHYRATKVAFWKHLVPHLYNLHDMFHYTSTTTKVPPPDTTHSSHITRRPNGKTWSTKRPAISPAYSNENAQGSWNGDQDAGPLLVENPRDYSTELSVTIAVGASLLFLNVLAFAALYYRKDKRRQEPLRQPSPQRGAGAPELGAAPEEELAALQLGPTHHECEAGPPHDTLRLTALPDYTLTLRRSPDDIPLMTPNTITMIPNSLVGLQTLHPYNTFAAGFNSTGLPHSHSTTRV | 2
